# Results: IntAct's records for PubMed 17666432
# B1: Zygote defective protein 9 (Caenorhabditis elegans), G5EEM5 (parent)
# chain: MSNWDYLDEVDILPKLPPNFDELRESKKWQERKEALEALLKVLTDNERLSTKASYAELIGHLQMVLAKDANINCQALAAKCIGKFATGLRAKFSSFAGPLLPVIFEKMKEKKPMLREPLVDCSNEVGRTMQSLETGQEDILAALAKPNPQIKQQTALFVARQLDLVVPAKQPKGFIKAVVPVFGKLTGDADQDVREASLQGLGAVQRIIGDKNVKNLLGDASSDEGKMKKIGEYAEKSTASFAEEQAKNAPPVAPTSSTPSASAASGDPSGGTATAVVSSGAPVAEADPWDFLDAFDVLSKMPDGFDTNIESKKWQERKEALEGLLQLITANPKLDPKANYGALVERLQKVLEKDANINVAALAANCITGIANGLRTKFQPFAVSVTPIIFEKFKEKKPTLRDPLVACIDAVVATTNLEAVGEIVLAALGKPNPSIKTQTDLFLQRCFMKLNSQTMPKKTLKTLIPSLIKHSGDSDSEVREASYAAMGAMMRAIGEKPSLQLLADIASDNLKMSKIKEFHQKALDEAGPAEIAEMVKSIHKADAPPAAAPPKKTAPPKKQPEDEEVVEEEDEPLKPPPGDKKKKVPVKENEENEPPVVAPKAELLLSDNEDKKQRIKEEKQLKLVKWNFQAPTDEHISQLQTLLGNQAKVSLMSQLFHKDFKQHLAALDSLVRLADTSPRSLLSNSDLLLKWCTLRFFETNPAALIKVLELCKVIVELIRDTETPMSQEEVSAFVPYLLLKTGEAKDNMRTSVRDIVNVLSDVVGPLKMTPMLLDALKSKNARQRSECLLVIEYYITNAGISPLKSLSVEKTVAPFVGDKDVNVRNAAINVLVACFKFEGDQMWKAAGRMADKDKSLVEERIKRTGVKPGSGVVTSPPTGGPKILVPQQQGSVVRRPASRSRTREPEPEEVQSDTFTIRQDTMPPKTSSRYALRDDVFSSAMGRLDGTQVITPPQPVNGWSNNTFQMKRTNSSSSISSIDTSDQIQRSINNISSSLADVAQDAMFQVTYVLNQPEQRHLVDRRADLVFRASAAQLDLVIEEFNAGRDVSGTMDACTQMLFILMGGVETEHGLEPLNASPDTVKAIISSVLRCIIQIGNTESGYGMARSLNRLAMRLIYRVELSNLLCGLILAMTESLQMNTGITELVSKLSSKWCDELEKRRAQLRASDIVDSFNAFYVCALTELKMDISDSHILIVDNYLERVILQQGDVVLDAARRLSRPHMHLTSMINKILQMMRERKIDPIMPGTLEARMPQEDEAVVVRSGVQVSIDNILRDTSMAVKHIEQLNILIASSDRSWNEYMEYLKNNPMGELIKELVGECSRKKRIDFNLSHVVKSSMAVFKAMAATGPVQEEGRITPTDINRMDTMIVGTPLSRGDATITRARGNMIRPKRTTLSRDQMANIRHTLDRVKNH
# partner: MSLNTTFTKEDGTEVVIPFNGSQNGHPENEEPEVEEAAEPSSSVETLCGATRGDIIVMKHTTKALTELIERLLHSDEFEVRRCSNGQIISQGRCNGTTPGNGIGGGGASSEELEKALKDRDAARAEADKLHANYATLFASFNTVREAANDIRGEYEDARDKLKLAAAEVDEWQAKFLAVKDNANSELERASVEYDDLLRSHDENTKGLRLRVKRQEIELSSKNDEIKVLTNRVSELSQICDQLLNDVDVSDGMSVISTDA
# B2: Transforming acid coiled-coil-containing protein 1 (Caenorhabditis elegans), G5ECG0 (parent)
# chain: B1 partner
# partner: B1 chain
# Variants of: B1
# Conditions: with tacc1_caeel tac-1, G5ECG0
row,effect of a mutation on the interaction,Variant
1,decreasing interaction,I862K
2,decreasing interaction,E1317K

# Variants of: B2
# Conditions: with zyg9_caeel zyg-9, G5EEM5
row,effect of a mutation on the interaction,Variant
1,decreasing interaction,L229F
